B1: LINE1-full (parent)
chain: UACGUAGGUGGUUUUCCCCUGAUAGUGCUAAGGGGGCCUGGAAGUUUGGACUGGGCAGAGCUCAACACAGCGUGGCAAAGUGGCUGUGGCUAGACUGCCUCUCUGGAUUCCUCGUCACUCAGCAGGGCAUCUCUGAGAGAAAUGCC

Variants of: B1
Assay: self-cleavage, relative activity (ratio to wild type); higher = more cleavage; in vitro, sequencing; the parent is a self-cleaving ribozyme
For UACGUAGGUGGUUUUCCCCUGAUAGUGCUAAGGGGGCCUGGAAGUUAGGACUGGGCAGAGCUCAACACAGCGCGGCAAAGUGGCUGUGGCUAGACUGCCUCUCUGGAUUCCUCGUCACUCAGCAGGGCAUCUCUGAGAGAAAUGCC, the self-cleavage was 1.45.
In the case of UACGUAGGUGGUUUUCCCCUGAUAGUGCUAAGGGGGCCUGGAAGUUUGGACUGGGCAGAGCUCAACACAGCGUGGCAAAGUGGCGGUGGCUAGACUGCCUCUCUGGAUUCCUAGUCACUCAGCAGGGCAUCUCUGAGAGAAAUGCC, the self-cleavage is reported as 0.14.
Work on UACGUAGGUGGUUUUCCCCUGAUAGUGCUAAGGGGGCCUGGCAGUUUGGACUGGGCAGAGCUCAACACAGCGUGGCAAAGUGGCUGUGGCUAGACUGCCUCUCUGGAUUACUCGUCACUCAGCAGGGCAUCUCUGAGAGAAAUGCC yielded a self-cleavage of 1.68.
Work on UACGUAGGUGGUUUUCCCCUGAUAGUGCUAAGGGGGCCUGGAAGUUUGGACUGGGCAGAGCUCGACACAGCGUGGCAAAGUGGCUGUGGCCAGACUGCCUCUCUGGAUUCCUCGUCACUCAGCAGGGCAUCUCUGAGAGAAAUGCC yielded a self-cleavage of 0.07.
With UACGUAGGUGGUUUUCCCCUGAUAGUGCUAAGGGGGCCUGGAAGUUUGGACUGGGCAGAGCUCAACACAGCGUGGCUAAGUGGCUGUGGCUAGACUACCUCUCUGGAUUCCUCGUCACUCAGCAGGGCAUCUCUGAGAGAAAUGCC the self-cleavage was 0.07.
Variant UACGUACGUGGUUUUCCCCUGAUAGUGCUAAGGGGGCCUGGAAGUUUGGACUGGGCAGAGCUCAACACAGCGUGGCAAAGUGGCUGUGGCUAGACUGCCUCUCUGGAUUCCUCGUCACUCAGCAGGGCAUCUCUGAGAGAAAUGCC has a self-cleavage of 1.4.
UACGUAGGUGGUUUUCCCCUGAUAGUGCUAAGGGGCCCUGGAAGUUUGGACUGGGCUGAGCUCAACACAGCGUGGCAAAGUGGCUGUGGCUAGACUGCCUCUCUGGAUUCCUCGUCACUCAGCAGGGCAUCUCUGAGAGAAAUGCC showed a self-cleavage of 0.07.
In the case of UACGUAGGUGGUUUUCCCCUGAUAGUGCUAAGGGGGCCUGGAAGUUUGGACUGGGCAGAGCUCAACACAGCGUGGUAAAGUGGCUGUGGCUAGAUUGCCUCUCUGGAUUCCUCGUCACUCAGCAGGGCAUCUCUGAGAGAAAUGCC, the self-cleavage is reported as 0.41.
For UACGUAGGUGGUUUUCCCCUGAUAGUGCUAAGGGGGCCUGGAAGUUUGGACAGGGCAGAGCUCAACACAGCGUGGCAAAGUGGCCGUGGCUAGACUGCCUCUCUGGAUUCCUCGUCACUCAGCAGGGCAUCUCUGAGAGAAAUGCC, the self-cleavage was 0.2.
With UACGUAGGUGGUUUUCCCCUGAUAGUGCUAAGGGGGCCUGGAAGUUUGGACUGGGCAGAGUUCAACACAGCGUGGCAAAGUGGCUGUGGCUAGACUGCCUCUCUGGAUUCCUCGUCGCUCAGCAGGGCAUCUCUGAGAGAAAUGCC the self-cleavage was 0.05.
For UACGUAGGUGGUUUUCCCCUGAUAGUGCUAAGGGGGCCUGGAAGUUUGGACUGGGCAGAGCUCAACACAGCGUGGCAAAGUGGCUGUGGCUAGACUGCCUCUCUGGAUCCCUCGUCACUCAGCAGGGCAUCUCUGAGAGAAGUGCC, the self-cleavage was 0.77.
UACGUAGGUGGUUUUCCCCUGAUAGUGCUAAGGGGGCCUGGAAGUUCGGACUGGGCAGGGCUCAACACAGCGUGGCAAAGUGGCUGUGGCUAGACUGCCUCUCUGGAUUCCUCGUCACUCAGCAGGGCAUCUCUGAGAGAAAUGCC gave a self-cleavage of 0.12.
With UACGUAGGUGGUUUUCCCCUGAUAGAGCUAAGGGGGCAUGGAAGUUUGGACUGGGCAGAGCUCAACACAGCGUGGCAAAGUGGCUGUGGCUAGACUGCCUCUCUGGAUUCCUCGUCACUCAGCAGGGCAUCUCUGAGAGAAAUGCC the self-cleavage was 0.73.
Variant UACGUAGGUGGUUUUCCCCUGAUCGUGCUAAGGGGGCCUGGAAGUUUGGACUGGGCAGAGCUCAACACAGCGUGGCAAAGUGGCUGUGGCUAGACUGCCUCUCUGGAUUCCUCGUCACUCAGCAGGGCAUCUCUGAGAGAAAUGCC has a self-cleavage of 1.62.
Work on UACGUAGGUGGUUUUCCCCUGAUAGUGCUAAGGGGGCCUGUAAGUUUGGACUGGGCAGAGCUCAACACAGCGCGGCAAAGUGGCUGUGGCUAGACUGCCUCUCUGGAUUCCUCGUCACUCAGCAGGGCAUCUCUGAGAGAAAUGCC yielded a self-cleavage of 2.76.
With UACGUAGGUGGUUUUCCCUUGAUAGUGCUAAGGGGGCCUGGAAGUUUGGACUGGGCAGAGCUCAACACAGCGUGGCAAAGUGGCUGUGGCUAGACUGCCUCUCUGGAUUCCUCGUCACUUAGCAGGGCAUCUCUGAGAGAAAUGCC the self-cleavage was 1.25.
Variant UACGUAGGUGGUUUUCCCCUGAUAGUGCUAAGGGGGCCUGGAAGUUUGGACUGGGCAGAGCUCAACACAGCGGGGCAAAGUGGCUGUGGCUAGACUGCCUCUCUGGAUUCCGCGUCACUCAGCAGGGCAUCUCUGAGAGAAAUGCC has a self-cleavage of 0.
UACGUAGGGGGUUUUCCCCUGAUAGUGCUAAGGGGGCCUGGAAGUUUGGACUGGGCAGAGCUCAACACAGCGUGGCAAAGUGGCUGUGGCUACACUGCCUCUCUGGAUUCCUCGUCACUCAGCAGGGCAUCUCUGAGAGAAAUGCC gave a self-cleavage of 0.11.
In the case of UACGUAGGUGGUUUUCCCUUGAUAGUGCUAAGGGGGCCUGGAAGUUUGGACUGGGCGGAGCUCAACACAGCGUGGCAAAGUGGCUGUGGCUAGACUGCCUCUCUGGAUUCCUCGUCACUCAGCAGGGCAUCUCUGAGAGAAAUGCC, the self-cleavage is reported as 0.88.
In the case of UACGUAGGUGGUUUUCCCCUGAUAGUGCUAAGGGGGCCUGGAAGUUCGGACUGGGCAGAGCUCAACACAGCGUGGCAAAGUGGCUGUGGCUAGACUGCCUCUCUGGAGUCCUCGUCACUCAGCAGGGCAUCUCUGAGAGAAAUGCC, the self-cleavage is reported as 1.41.
Work on UACGUAGGUGGUUUUCCCCUGAUAGUGCUAAGGGGGCCUGGAAGUUUGGACUGGGCAGAGCUCAACACAGCGUGGCAAAGUGGCUGUGGCUAGACUGCCUCUCUGAAUUCCUCGUCACUCAGCAGGGCAUCACUGAGAGAAAUGCC yielded a self-cleavage of 0.61.
Work on UACGUAGGUGGUUUUCCCCUGAUAGUGCUAAGGGGGCCUGGAAGUUUGGACUGGGCAGAGCUCAACACAGCGUGGCAAAGUGGCUGUGGCUAGACUGCCUCUCUGGAUUCCUCGUCACUCGGCAGGGUAUCUCUGAGAGAAAUGCC yielded a self-cleavage of 1.6.
With CACGUAGGAGGUUUUCCCCUGAUAGUGCUAAGGGGGCCUGGAAGUUUGGACUGGGCAGAGCUCAACACAGCGUGGCAAAGUGGCUGUGGCUAGACUGCCUCUCUGGAUUCCUCGUCACUCAGCAGGGCAUCUCUGAGAGAAAUGCC the self-cleavage was 0.75.
In the case of UACGUAGGUGGUUUUCCCCUGAUAGUGCUAAGGGGGCCUGGAAGUUUGGACUGGGCAGAGCUCAACACAGCGUGGCAAAGUGGCUGUGGCUAGACUGCCUCUCUGGAUUCCUCGUCACUCAGCAAGGCAUCCCUGAGAGAAAUGCC, the self-cleavage is reported as 1.55.
UACGUAGGUGGUUUUCCCCUGAUAGUGCUAAGGGGGCCUGGAGGUUUGGACUGGGCAGAGCUCAACACAGCGUGGCAAAGUGGCUGUGGCUAGACUGCCUCUCUGGAUUCCUUGUCACUCAGCAGGGCAUCUCUGAGAGAAAUGCC gave a self-cleavage of 1.12.
UACGUAGGUGGUUUUCCCCUGAUAGUGCUAAGGGGGCCUGGAAGUUUGGACUGGGCAGAGCUCAACACAGCGUGGCAAAGAGGCUGUGGCUAGACUGCCUCUCUGGAUUCCUCGUCGCUCAGCAGGGCAUCUCUGAGAGAAAUGCC showed a self-cleavage of 2.29.
For UACGUAGGUGGUUUUCCCCUGAUAGUGCUAAGGGGGCCUGGAAGAUUGGACUGGGCAGAGCUCAACACAGCGAGGCAAAGUGGCUGUGGCUAGACUGCCUCUCUGGAUUCCUCGUCACUCAGCAGGGCAUCUCUGAGAGAAAUGCC, the self-cleavage was 1.91.
For UACGUAGGUGGUUUUCCCCUGAUAAUGCUAAGGGGGCCUGGAAGUUUGGACUGGGCAGAGCUCAACACAGCGUGGCAAAGUGGCUGUGGCUAGACUGCCUCUCUGGAUUCCUCGUCACUCAGCAGGGCAUCUCUGAGAGGAAUGCC, the self-cleavage was 1.49.
With UACGUAGGUGGUUUUCCCCUGAUAGUGCUAAGGGGGCCUGGAAGUUUGGACUGGGCAGAGCUCAACACAGCGUGGCAAAGUGGCUGUGGCUAGACUGUCUCUCUGGAUUCCUCGUCACUCAGCAGGGCAUCUCUGAGAGAAUUGCC the self-cleavage was 0.47.
Variant UACGUAAGUGGUUUUCCCCUGAUAGUGCUAAGGGGGCCUGGAAGUUUGGACUGGGCAGAGCUCAACACAGCGUGGCAAAGUGGCUGUGGCUAGACUGCCUCUCUGGAUUCCUCGUCACUCAGCAGGGCAUCUCUGAGAGAAGUGCC has a self-cleavage of 1.59.
UACGUAGGUGGUUUUCCCCUGAUAGUGCUAAGGGGGCCUGGAAGUUUGGACUGGGCAGAGCUCAACGCAGCGUGGCAAAGUGGCUGUGGCUAGACUGCCUCUCUGGAUCCCUCGUCACUCAGCAGGGCAUCUCUGAGAGAAAUGCC showed a self-cleavage of 0.16.
Variant UACGUAGGUGGUUUUCCCCUGAUAGUGCUAAGGGGGCCUGGAAGUUUGGACUGGGCAGAGCUCAACACAGCGUGGCAAUGUGGCUGUGGCUAGACUGCCGCUCUGGAUUCCUCGUCACUCAGCAGGGCAUCUCUGAGAGAAAUGCC has a self-cleavage of 1.24.
With UACGUAGGUGGUUUUCCCCUGAUAGUGCUAAGGGGGCCUGGAAGUUUGGACUGGGCAGAGCUCAACACAGCGAGGCUAAGUGGCUGUGGCUAGACUGCCUCUCUGGAUUCCUCGUCACUCAGCAGGGCAUCUCUGAGAGAAAUGCC the self-cleavage was 0.69.
For UACGUAGGUGGAUUUCCCCUGAUAGUGCUAACGGGGCCUGGAAGUUUGGACUGGGCAGAGCUCAACACAGCGUGGCAAAGUGGCUGUGGCUAGACUGCCUCUCUGGAUUCCUCGUCACUCAGCAGGGCAUCUCUGAGAGAAAUGCC, the self-cleavage was 0.8.
Variant UACGUAGGUGGUUUUCCCCUGAUAGUGCUAAGGGGGCCAGGAAGUUUGGACUGGGCAGAGCUCUACACAGCGUGGCAAAGUGGCUGUGGCUAGACUGCCUCUCUGGAUUCCUCGUCACUCAGCAGGGCAUCUCUGAGAGAAAUGCC has a self-cleavage of 0.47.
Variant UACGAAGGUGGUUUUCCCCUGAUAGAGCUAAGGGGGCCUGGAAGUUUGGACUGGGCAGAGCUCAACACAGCGUGGCAAAGUGGCUGUGGCUAGACUGCCUCUCUGGAUUCCUCGUCACUCAGCAGGGCAUCUCUGAGAGAAAUGCC has a self-cleavage of 1.37.
Work on UACGUAGGUGGUUUUCCCCUGAUAGUGCUAAUGGGGCCUGGAAGUUUGGACUGGGCAGAGCUCAACACAGCGUGGCAAAGUGGCUGUGGCUAGACUGCCUCUCUGGAUUCCUCGUCACUCAGCAGGGCAUCUCCGAGAGAAAUGCC yielded a self-cleavage of 0.74.
Work on UACGUAGGUGGUUUUCACCUGAUAGUGCUAAGGGGGCCUGGAAGUUUGGACUGGGCAGAGCUCAACACAGCGUGGCAAAGUGGCUGUGGCUAGACUGCCUCUCUGGAUUCCUCGUCACUCAGCAGGGCAUCUCCGAGAGAAAUGCC yielded a self-cleavage of 1.11.
For UACGUAGGUGGUAUUCCCCUGAUGGUGCUAAGGGGGCCUGGAAGUUUGGACUGGGCAGAGCUCAACACAGCGUGGCAAAGUGGCUGUGGCUAGACUGCCUCUCUGGAUUCCUCGUCACUCAGCAGGGCAUCUCUGAGAGAAAUGCC, the self-cleavage was 0.53.

From the RNAGym collection of RNA variant scans (doi:10.7554/elife.90254)
